Experimental data: PMC10511499, “Conserved roles for the dynein intermediate chain and Ndel1 in assembly and activation of dynein” (Nature Communications, 2023)

B1: human Ndel1 coiled-coil domain (Ndel1^CC, residues 1-195) (domain or fragment, UniProt Q9GZM8 1-195, looked up)
chain: MDGEDIPDFSSLKEETAYWKELSLKYKQSFQEARDELVEFQEGSRELEAELEAQLVQAEQRNRDLQADNQRLKYEVEALKEKLEHQYAQSYKQVSVLEDDLSQTRAIKEQLHKYVRELEQANDDLERAKRATIVSLEDFEQRLNQAIERNAFLESELDEKESLLVSVQRLKDEARDLRQELAVRERQQEVTRKSA
notes: Ndel1, human, coiled-coil domain, residues 1-195; also called NudEL^CC; source: E. coli BL21-CodonPlus (DE3)-RIPL, purified (Strep-tactin XT, HiTrap Q, SEC)
B3: yeast Ndl1 coiled-coil domain (Ndl1^CC, residues 2-132) (domain or fragment, S. cerevisiae, UniProt Q06568 2-132, looked up)
chain: VPNLDLETAIQIISSLETQLSELEGATKEYENDLEQVISKLKSDLLESQQQNKCNKKQITDLEIQVDELENENIQLRNKIETLQLESDRRLERNVLLEHELLDTKEALQKLRVSKEEATSGETRRNTRSLP
notes: Ndl1, S. cerevisiae, coiled-coil domain, residues 2-132; No cleavage of the tags is described; also called StrepII-sfGFP-Ndl1^CC; source: E. coli BL21-CodonPlus (DE3)-RIPL, purified (Strep-tactin XT, SEC)

How the values were obtained:
[1] = biological target: the molecule itself; experiment: mass photometry; human proteins; preincubated at 0.5-1 µM for 5 min at room temperature, 1:1 molar ratio, measured at 5-20 nM; 90 mM HEPES-KOH pH 7.4, 50 mM K-acetate
[2] = biological target: T1, yeast dynein^∆ICN complex (Pac11 lacking its N-terminal 43 residues) (S. cerevisiae, UniProt P36022 1-4092; P40960 44-533; Q04949 1-312; Q02647 1-92, JF503-, JFX549- or JFX646-HaloTag ligand on the HaloTag); experiment: TIRF microscopy microtubule recruitment assay; yeast proteins; dynein on taxol-stabilised microtubules held by anti-tubulin antibody; fluorescent partner flowed in, TEV buffer with 1 mM DTT, 5-10 min; intensity along microtubules; conditions: both partners purified
T1 construct: dynein heavy chain Dyn1, S. cerevisiae; dynein intermediate chain Pac11, S. cerevisiae, N-terminal 43 residues deleted; dynein light-intermediate chain Dyn3, S. cerevisiae; dynein light chain Dyn2, S. cerevisiae; also called Pac11^∆ICN dynein; source: S. cerevisiae, all genes overexpressed from GAL1p; purified (IgG sepharose, TEV elution); not shown: 8His (also printed 6xHis), N-terminal, …

[3] = biological target: T2, yeast dynein complex, wild type (Dyn1, Pac11, Dyn3, Dyn2) (S. cerevisiae, UniProt P36022 1-4092; P40960 1-533; Q04949 1-312; Q02647 1-92, JF503-, JFX549- or JFX646-HaloTag ligand on the HaloTag); experiment: as above; conditions: both partners purified
T2 construct: dynein heavy chain Dyn1, S. cerevisiae; dynein intermediate chain Pac11, S. cerevisiae; dynein light-intermediate chain Dyn3, S. cerevisiae; dynein light chain Dyn2, S. cerevisiae; also called WT dynein; HaloTag-Dyn1 complex; source: S. cerevisiae, all genes overexpressed from GAL1p; purified (IgG sepharose, TEV elution); not shown: 8His (also printed 6xHis), N-terminal, cleaved; ZZ, N-terminal, …
T2 sequence (P36022 whole entry, chain 1 of 4): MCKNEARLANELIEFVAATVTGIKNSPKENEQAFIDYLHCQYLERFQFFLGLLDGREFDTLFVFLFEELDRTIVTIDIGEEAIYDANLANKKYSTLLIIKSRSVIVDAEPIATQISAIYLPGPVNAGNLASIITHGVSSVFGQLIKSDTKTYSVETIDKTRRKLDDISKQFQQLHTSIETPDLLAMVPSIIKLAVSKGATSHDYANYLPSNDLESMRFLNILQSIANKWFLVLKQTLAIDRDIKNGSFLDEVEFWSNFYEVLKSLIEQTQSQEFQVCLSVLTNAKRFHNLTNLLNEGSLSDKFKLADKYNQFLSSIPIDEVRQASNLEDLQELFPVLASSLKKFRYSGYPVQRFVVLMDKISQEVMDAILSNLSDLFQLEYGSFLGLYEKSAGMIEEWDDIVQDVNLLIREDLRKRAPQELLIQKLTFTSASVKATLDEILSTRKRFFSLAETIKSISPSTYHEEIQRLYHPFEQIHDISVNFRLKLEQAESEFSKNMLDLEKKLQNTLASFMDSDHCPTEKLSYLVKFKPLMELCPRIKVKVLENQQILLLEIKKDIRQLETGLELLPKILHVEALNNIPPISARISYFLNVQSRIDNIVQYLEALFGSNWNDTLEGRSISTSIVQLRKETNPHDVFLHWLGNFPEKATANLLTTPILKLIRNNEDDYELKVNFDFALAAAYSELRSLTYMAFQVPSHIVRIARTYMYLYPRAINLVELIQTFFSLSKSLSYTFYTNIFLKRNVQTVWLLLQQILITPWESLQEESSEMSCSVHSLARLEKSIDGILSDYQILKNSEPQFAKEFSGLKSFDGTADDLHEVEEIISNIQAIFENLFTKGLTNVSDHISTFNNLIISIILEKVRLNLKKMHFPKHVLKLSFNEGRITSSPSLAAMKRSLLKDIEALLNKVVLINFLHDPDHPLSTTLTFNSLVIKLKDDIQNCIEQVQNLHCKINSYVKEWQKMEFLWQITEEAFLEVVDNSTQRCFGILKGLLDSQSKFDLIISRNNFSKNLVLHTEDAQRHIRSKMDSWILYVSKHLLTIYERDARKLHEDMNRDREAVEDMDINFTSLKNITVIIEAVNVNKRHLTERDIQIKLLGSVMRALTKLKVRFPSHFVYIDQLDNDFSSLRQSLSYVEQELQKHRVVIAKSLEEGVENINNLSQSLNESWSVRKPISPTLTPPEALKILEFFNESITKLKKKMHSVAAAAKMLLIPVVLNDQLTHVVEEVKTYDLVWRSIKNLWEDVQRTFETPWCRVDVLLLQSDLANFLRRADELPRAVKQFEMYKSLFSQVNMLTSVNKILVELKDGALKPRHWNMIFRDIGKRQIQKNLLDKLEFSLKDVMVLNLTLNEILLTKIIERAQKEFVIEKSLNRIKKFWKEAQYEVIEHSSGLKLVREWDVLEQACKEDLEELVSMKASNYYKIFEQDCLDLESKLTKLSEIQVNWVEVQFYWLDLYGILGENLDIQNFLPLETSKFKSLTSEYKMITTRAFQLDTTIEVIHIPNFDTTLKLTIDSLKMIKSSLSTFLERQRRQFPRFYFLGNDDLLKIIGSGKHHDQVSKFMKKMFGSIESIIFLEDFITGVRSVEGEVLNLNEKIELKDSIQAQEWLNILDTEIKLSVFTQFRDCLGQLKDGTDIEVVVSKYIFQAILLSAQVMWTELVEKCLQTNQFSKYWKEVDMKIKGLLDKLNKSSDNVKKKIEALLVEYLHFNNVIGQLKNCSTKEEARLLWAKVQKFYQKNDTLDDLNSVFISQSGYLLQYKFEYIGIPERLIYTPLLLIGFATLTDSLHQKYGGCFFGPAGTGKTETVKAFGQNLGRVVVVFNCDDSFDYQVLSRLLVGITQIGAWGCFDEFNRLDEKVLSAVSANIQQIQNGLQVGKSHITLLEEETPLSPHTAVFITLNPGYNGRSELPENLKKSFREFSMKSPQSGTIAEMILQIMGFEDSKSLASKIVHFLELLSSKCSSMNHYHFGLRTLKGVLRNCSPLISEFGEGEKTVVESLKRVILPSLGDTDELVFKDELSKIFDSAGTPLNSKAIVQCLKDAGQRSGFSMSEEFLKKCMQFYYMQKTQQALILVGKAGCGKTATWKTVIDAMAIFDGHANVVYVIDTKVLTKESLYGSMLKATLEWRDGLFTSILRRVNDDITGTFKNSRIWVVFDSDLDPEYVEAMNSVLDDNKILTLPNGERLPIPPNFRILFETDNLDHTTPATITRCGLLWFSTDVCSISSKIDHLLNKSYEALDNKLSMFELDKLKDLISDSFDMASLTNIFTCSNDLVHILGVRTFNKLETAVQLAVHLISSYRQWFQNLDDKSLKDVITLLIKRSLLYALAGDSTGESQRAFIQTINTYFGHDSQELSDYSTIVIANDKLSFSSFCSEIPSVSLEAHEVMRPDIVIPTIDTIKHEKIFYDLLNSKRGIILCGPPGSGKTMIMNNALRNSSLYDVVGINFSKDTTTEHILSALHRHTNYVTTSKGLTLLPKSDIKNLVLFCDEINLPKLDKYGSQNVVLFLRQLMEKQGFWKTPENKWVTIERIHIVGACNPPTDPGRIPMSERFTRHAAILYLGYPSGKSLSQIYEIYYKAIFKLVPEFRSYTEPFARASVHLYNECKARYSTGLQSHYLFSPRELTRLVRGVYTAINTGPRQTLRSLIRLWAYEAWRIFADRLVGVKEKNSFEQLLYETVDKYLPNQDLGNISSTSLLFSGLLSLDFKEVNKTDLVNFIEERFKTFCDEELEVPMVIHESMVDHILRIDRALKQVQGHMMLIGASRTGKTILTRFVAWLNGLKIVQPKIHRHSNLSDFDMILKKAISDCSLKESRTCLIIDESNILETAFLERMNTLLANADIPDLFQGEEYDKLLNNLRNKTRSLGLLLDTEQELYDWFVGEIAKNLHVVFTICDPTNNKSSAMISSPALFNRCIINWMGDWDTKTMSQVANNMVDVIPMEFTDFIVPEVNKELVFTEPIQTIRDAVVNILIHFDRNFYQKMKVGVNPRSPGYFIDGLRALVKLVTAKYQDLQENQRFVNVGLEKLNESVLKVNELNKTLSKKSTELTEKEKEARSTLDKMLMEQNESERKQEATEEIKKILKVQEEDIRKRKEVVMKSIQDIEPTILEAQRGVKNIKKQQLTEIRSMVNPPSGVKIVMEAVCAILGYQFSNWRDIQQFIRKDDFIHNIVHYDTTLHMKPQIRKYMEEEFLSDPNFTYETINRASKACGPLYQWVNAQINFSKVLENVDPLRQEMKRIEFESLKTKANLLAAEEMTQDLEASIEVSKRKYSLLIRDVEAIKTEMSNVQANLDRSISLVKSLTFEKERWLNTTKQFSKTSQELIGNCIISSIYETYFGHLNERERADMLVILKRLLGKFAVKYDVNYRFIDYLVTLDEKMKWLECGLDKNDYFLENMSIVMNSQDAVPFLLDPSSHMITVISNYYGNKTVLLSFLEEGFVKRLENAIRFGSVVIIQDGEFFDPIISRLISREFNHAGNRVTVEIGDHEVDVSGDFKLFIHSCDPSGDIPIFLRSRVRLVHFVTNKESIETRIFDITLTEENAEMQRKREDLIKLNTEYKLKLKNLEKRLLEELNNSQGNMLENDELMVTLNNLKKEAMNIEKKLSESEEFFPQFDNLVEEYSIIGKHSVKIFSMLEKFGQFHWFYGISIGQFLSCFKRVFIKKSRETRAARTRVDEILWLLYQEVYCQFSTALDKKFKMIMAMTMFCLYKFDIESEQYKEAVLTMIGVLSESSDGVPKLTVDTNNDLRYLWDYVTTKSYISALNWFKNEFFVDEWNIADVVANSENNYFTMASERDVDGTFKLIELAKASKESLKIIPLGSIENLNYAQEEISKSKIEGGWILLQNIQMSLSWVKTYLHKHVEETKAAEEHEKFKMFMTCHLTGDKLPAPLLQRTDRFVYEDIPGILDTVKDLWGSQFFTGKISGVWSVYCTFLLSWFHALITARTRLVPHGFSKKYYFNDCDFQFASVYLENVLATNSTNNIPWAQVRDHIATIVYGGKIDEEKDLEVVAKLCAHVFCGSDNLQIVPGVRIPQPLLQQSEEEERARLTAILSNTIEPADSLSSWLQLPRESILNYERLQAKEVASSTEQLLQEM
T2 sequence (P40960 whole entry, chain 2 of 4): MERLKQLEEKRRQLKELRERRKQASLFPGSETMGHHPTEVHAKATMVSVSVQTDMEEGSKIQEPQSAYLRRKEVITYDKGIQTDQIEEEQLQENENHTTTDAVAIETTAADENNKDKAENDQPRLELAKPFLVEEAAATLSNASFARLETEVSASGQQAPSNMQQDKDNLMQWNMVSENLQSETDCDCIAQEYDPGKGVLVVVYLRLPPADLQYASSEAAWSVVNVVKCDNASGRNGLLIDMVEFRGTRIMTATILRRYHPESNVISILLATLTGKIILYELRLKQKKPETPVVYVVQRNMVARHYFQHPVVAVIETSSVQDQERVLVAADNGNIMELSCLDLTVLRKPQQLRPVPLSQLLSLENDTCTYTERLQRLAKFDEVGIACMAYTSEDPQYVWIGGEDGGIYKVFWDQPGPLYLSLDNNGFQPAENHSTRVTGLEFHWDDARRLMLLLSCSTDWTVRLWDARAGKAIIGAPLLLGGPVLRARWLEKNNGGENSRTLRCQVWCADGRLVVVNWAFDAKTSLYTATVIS
T2 sequence (Q04949 whole entry, chain 3 of 4): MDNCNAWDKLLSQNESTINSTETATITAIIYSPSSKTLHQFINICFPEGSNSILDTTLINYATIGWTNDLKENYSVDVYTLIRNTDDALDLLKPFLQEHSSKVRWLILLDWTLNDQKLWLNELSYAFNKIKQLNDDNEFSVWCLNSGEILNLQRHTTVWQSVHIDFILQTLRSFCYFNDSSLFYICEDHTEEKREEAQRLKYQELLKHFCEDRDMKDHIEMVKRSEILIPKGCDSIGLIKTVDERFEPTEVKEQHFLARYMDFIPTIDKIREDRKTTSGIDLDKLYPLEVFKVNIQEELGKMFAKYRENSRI
T2 sequence (Q02647 whole entry, chain 4 of 4): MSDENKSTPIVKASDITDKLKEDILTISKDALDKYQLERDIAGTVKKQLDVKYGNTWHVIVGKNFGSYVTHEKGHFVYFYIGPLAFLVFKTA

[4] = biological target: the molecule itself; experiment: mass photometry; yeast proteins; mixed 1:1 at 50-100 nM each, 1-2 min, measured at 10-20 nM; 50 mM Tris pH 8.0, 150 mM K-acetate
[5] = biological target: B3; experiment: as above; conditions: both partners purified
[6] = biological target: B1; experiment: mass photometry; human proteins; preincubated at 0.5-1 µM for 5 min at room temperature, 1:1 molar ratio, measured at 5-20 nM; 90 mM HEPES-KOH pH 7.4, 50 mM K-acetate; conditions: both partners purified

**Q.** How did the “stoichiometry N” value [1] turn out when B1 was run?
**A.** Its value is 2.

B2: full-length yeast Pac1 with C-terminal FLAG-SNAPf (natural protein, S. cerevisiae, UniProt P39946 1-494, looked up)
chain: MTNWQQQLPLTDTQKNELDKSVLRYLNWNYKQTVRHEHAQDYESVRHAIVTLSGFLLQESVDRQEFISNNDTSNESMVDIDELLLPKKWNSIVRLQKKIIELEQNTETLVSQIKDLNTQVSELAQFKPTTSNGTSAHNVLKWIPRNLPSCLINVESSVTSVKLHPNLPIVFVATDHGKLYAFDLFNYTIPLASLQSHTKAITSMDVLFTNYTNSSKKNYLVIVTASKDLQIHVFKWVSEECKFQQIRSLLGHEHIVSAVKIWQKNNDVHIASCSRDQTVKIWDFHNGWSLKTFQPHSQWVRSIDVLGDYIISGSHDTTLRLTHWPSGNGLSVGTGHEFPIEKVKFIHFIEDSPEIRFRTPSTDRYKNWGMQYCVSASRDRTIKIWEIPLPTLMAHRAPIPNPTDSNFRCVLTLKGHLSWVRDISIRGQYLFSCADDKSVRCWDLNTGQCLHVWEKLHTGFVNCLDLDVDFDSNVTPRQMMVTGGLDCKSNVFMR
notes: Pac1, yeast homolog of LIS1, full length; also called WT Pac1; Pac1-SNAPf; source: S. cerevisiae, overexpressed from GAL1p; purified (IgG beads, TEV elution); not shown: 8xHis, N-terminal, cleaved; ZZ, N-terminal, cleaved; SNAPf, C-terminal, kept
**Q.** What does the source list for B2?
**A.** binding result [2]: binds; binding result [3]: binds; stoichiometry N [4]: 2; stoichiometry N [5]: 1 Pac1 dimer per Ndl1 dimer

**Q.** Does B3 bind [3]?
**A.** Result: binds

**Q.** And the “stoichiometry N” value [4]?
**A.** The value was 2.

B4: yeast Ndl1^CC E64A R78A (domain or fragment, S. cerevisiae, UniProt Q06568 2-132, looked up)
chain: VPNLDLETAIQIISSLETQLSELEGATKEYENDLEQVISKLKSDLLESQQQNKCNKKQITDLAIQVDELENENIQLANKIETLQLESDRRLERNVLLEHELLDTKEALQKLRVSKEEATSGETRRNTRSLP
notes: Ndl1, S. cerevisiae, residues 2-132, E64 and R78 changed to alanines; also called interface 2 mutant of Ndl1^CC; source: E. coli BL21-CodonPlus (DE3)-RIPL, purified
**Q.** Does B4 bind [3]?
**A.** Result: binds

B5: yeast Nip100 coiled-coil 1 (Nip100^CC1, residues 97-377) with N-terminal eGFP (domain or fragment, S. cerevisiae, UniProt P33420 97-377, looked up)
chain: EHSLLNGNAAQETIKNLQVKCESLASKLNKIKIENHELKTSVEKLSTNETVLLSKISRLDKLVKELKVENGNMKTHLDNFNHLLDASDSVMAPDLDKGTLLERSHLLQGLLDQTKLSYDKAMKVQEDLLEENTQLLEENAVLSKKISDLGLQLQQTNNTIGDLALQIEAQSKSSNIVDKLTNDNILLTSNIKALNNELEELQAKEKLDENLRITYEQLEQELRLQLSNLQSALENEKEIAGTYIEENSRLKATLESIEAKTSHKFQSLELKVNTLQEELYQ
notes: Nip100, yeast homolog of p150^Glued, coiled-coil 1, residues 97-377; also called GST-eGFP-Nip100^CC1; source: E. coli BL21-CodonPlus (DE3)-RIPL, purified (glutathione agarose, Ulp1 digest, SEC); not shown: GST, N-terminal, cleaved; SUMO, N-terminal, cleaved
**Q.** Does B5 bind [3]?
**A.** Result: binds

B6: full-length yeast Ndl1 with C-terminal FLAG-SNAPf (natural protein, S. cerevisiae, UniProt Q06568 1-189, looked up)
chain: MVPNLDLETAIQIISSLETQLSELEGATKEYENDLEQVISKLKSDLLESQQQNKCNKKQITDLEIQVDELENENIQLRNKIETLQLESDRRLERNVLLEHELLDTKEALQKLRVSKEEATSGETRRNTRSLPSQNKKMKLFKDTIKVSTTSSTLYLQNMAKTNNAARSHCNIPNTQITQSTVIATTSSV
modifications: JFX554-SNAP or JFX650-SNAP ligand on the SNAPf tag
notes: Ndl1, yeast homolog of Ndel1, full length; also called Ndl1-SNAPf; source: S. cerevisiae, overexpressed from GAL1p; purified (IgG beads, TEV elution, SEC); not shown: SNAPf, C-terminal, kept; ZZ, C-terminal, cleaved; 8xHis, C-terminal, cleaved
**Q.** Does B6 bind [3]?
**A.** Result: binds

B7: LIS1, wild type, as used in mass photometry (construct not told) (natural protein, human, UniProt P43034 1-410, looked up)
chain: MVLSQRQRDELNRAIADYLRSNGYEEAYSVFKKEAELDVNEELDKKYAGLLEKKWTSVIRLQKKVMELESKLNEAKEEFTSGGPLGQKRDPKEWIPRPPEKYALSGHRSPVTRVIFHPVFSVMVSASEDATIKVWDYETGDFERTLKGHTDSVQDISFDHSGKLLASCSADMTIKLWDFQGFECIRTMHGHDHNVSSVAIMPNGDHIVSASRDKTIKMWEVQTGYCVKTFTGHREWVRMVRPNQDGTLIASCSNDQTVRVWVVATKECKAELREHEHVVECISWAPESSYSSISEATGSETKKSGKPGPFLLSGSRDKTIKMWDVSTGMCLMTLVGHDNWVRGVLFHSGGKFILSCADDKTLRVWDYKNKRCMKTLNAHEHFVTSLDFHKTAPYVVTGSVDQTVKVWECR
notes: LIS1, human; also called WT LIS1; source: Sf9 cells, purified
**Q.** How did the “stoichiometry N” value [6] turn out when B7 was run?
**A.** The value was 1 LIS1 dimer per Ndel1 dimer.
